In PMC2841617, “A Combination of Independent Transcriptional Regulators Shapes Bacterial Virulence Gene Expression during Infection”:

Assays:
[1] = molecular target: CovR (unphosphorylated) (Streptococcus pyogenes MGAS5005 (serotype M1)) (UniProt O87527); assay: fluorescence polarization; conditions: CovR FP: 1 nM fluorescein DNA, 20 mM Tris pH 7.5, 50 mM NaCl, 2 mM DTT, 10 ug/mL poly(dI:dC), 25 C; CcpA FP as in ref 30 (buffer not given), with or without …
[2] = molecular target: CovR-P (phosphorylated) (Streptococcus pyogenes MGAS5005 (serotype M1)) (UniProt O87527); assay: fluorescence polarization; conditions: CovR FP: 1 nM fluorescein DNA, 20 mM Tris pH 7.5, 50 mM NaCl, 2 mM DTT, 10 ug/mL poly(dI:dC), 25 C; CcpA FP as in ref 30 (buffer not given), with or without …
[3] = test system: CcpA (Streptococcus pyogenes (group A Streptococcus; strain of the clone not stated here)); assay: fluorescence polarization; conditions: CovR FP: 1 nM fluorescein DNA, 20 mM Tris pH 7.5, 50 mM NaCl, 2 mM DTT, 10 ug/mL poly(dI:dC), 25 C, CcpA FP as in ref 30 (buffer not given), with or without …
[4] = test system: CcpA;HPr-Ser46-P (Streptococcus pyogenes (group A Streptococcus; strain of the clone not stated here);Streptococcus pyogenes (group A Streptococcus)); assay: fluorescence polarization; conditions: CovR FP: 1 nM fluorescein DNA, 20 mM Tris pH 7.5, 50 mM NaCl, 2 mM DTT, 10 ug/mL poly(dI:dC), 25 C, CcpA FP as in ref 30 (buffer not given), with or without …
CovR (unphosphorylated) = CovR (unphosphorylated) (Streptococcus pyogenes MGAS5005 …, UniProt O87527 1-228); assay: fluorescence polarization; unphosphorylated; CovR FP: 1 nM fluorescein DNA, 20 mM Tris pH 7.5, 50 mM NaCl, 2 mM DTT, 10 ug/mL poly(dI:dC), 25 C; CcpA FP as in ref 30 (buffer not given), with or without 10; conditions: protein: recombinant, chain copies: 2, label: fluorescein

Molecule: hasA promoter probe
- Kd [1]: 2200 nM
- Kd [2]: 640 nM

Molecule: amyA cre
- Kd (nM (unit implied)) ([3]; no HPr-Ser46-P): 160
- Kd (nM (unit implied)) ([4]; 10 uM HPr-Ser46-P): 32

Molecule: spyCEP cre
- Kd [3]: 257 nM
- Kd [4]: 33 nM

Molecule: nga/slo cre
- Kd [3]: 674 nM
- Kd [4]: 42 nM

Molecule: arcA cre
- Kd ([3]; no HPr-Ser46-P): 219 nM
- Kd ([4]; 10 uM HPr-Ser46-P): 18 nM

Molecule: speB cre
- Kd [3]: 100 nM
- Kd [4]: 5 nM

B1: amyA promoter probe (structured_DNA)
DNA: CAACCAAACTCTCATTAGAAACCCCCCTTTCTAATGAGAGTTTGGTTG
- Kd (CovR (unphosphorylated); hairpin (21 bp stem, C6 loop)): 245 nM

B2: arcA promoter probe (structured_DNA)
DNA: ACAAAAACCAATTAGAAAGACCCCCTCTTTCTAATTGGTTTTTGT
- Kd (CovR (unphosphorylated); hairpin (20 bp stem, C5 loop)): 637 nM
